Laboratory results published in the supplement of paper PMC11246515.
± gives the standard deviation of the averaged measurements.

Experiment: total protein half-life in vivo (active degradation + dilution); higher = more stable protein
[1] = wild type E. coli NCM3722, growth: C-lim chemostat, doubling time 6 h
[2] = wild type E. coli NCM3722, growth: C-lim chemostat, doubling time 12 h
[3] = wild type E. coli NCM3722, growth: N-lim chemostat, doubling time 6 h
[4] = wild type E. coli NCM3722, growth: P-lim chemostat, doubling time 6 h
[5] = wild type E. coli NCM3722, growth: P-lim chemostat, doubling time 12 h
[6] = E. coli NCM3722 delta-lon, growth: N-lim chemostat, doubling time 6 h
[7] = E. coli NCM3722 delta-smpB, growth: N-lim chemostat, doubling time 6 h
[8] = E. coli NCM3722 delta-clpP delta-lon delta-hslV, growth: N-lim chemostat, doubling time 6 h
[9] = E. coli NCM3722 delta-clpP, growth: N-lim chemostat, doubling time 6 h
[10] = E. coli NCM3722 delta-hslV, growth: N-lim chemostat, doubling time 6 h
[11] = wild type E. coli NCM3722, growth: C-lim chemostat, doubling time 3 h
[12] = wild type E. coli NCM3722, growth: N-lim chemostat, doubling time 12 h

MKISRLGEAPDYRFSLANERTFLAWIRTALGFLAAGVGLDQLAPDFATPVIRELLALLLCLFSGGLAMYGYLRWLRNEKAMRLKEDLPYTNSLLIISLILMVVAVIVMGLVLYAG [P0ADM0]
total protein half-life in vivo [1]: 5.742 ± 0.053 h
total protein half-life in vivo [2]: > 16 h
total protein half-life in vivo [3]: 5.98 h
total protein half-life in vivo [4]: 5.91 h
total protein half-life in vivo [5]: 5 h

MKITVLGCGALGQLWLTALCKQGHEVQGWLRVPQPYCSVNLVETDGSIFNESLTANDPDFLATSDLLLVTLKAWQVSDAVKSLASTLPVTTPILLIHNGMGTIEELQNIQQPLLMGTTTHAARRDGNVIIHVANGITHIGPARQQDGDYSYLADILQTVLPDVAWHNNIRAELWRKLAVNCVINPLTAIWNCPNGELRHHPQEIMQICEEVAAVIEREGHHTSAEDLRDYVMQVIDATAENISSMLQDIRALRHTEIDYINGFLLRRARAHGIAVPENTRLFEMVKRKESEYERIGTGLPRPW [P0A9J4]
total protein half-life in vivo [6]: 3.4 h
total protein half-life in vivo [7]: 3.22 ± 0.64 h
total protein half-life in vivo [2]: 4.51 h
total protein half-life in vivo [3]: 3.03 h
total protein half-life in vivo [4]: 5.73 ± 0.2 h

MKIVEVKHPLVKHKLGLMREQDISTKRFRELASEVGSLLTYEATADLETEKVTIEGWNGPVEIDQIKGKKITVVPILRAGLGMMDGVLENVPSARISVVGMYRNEETLEPVPYFQKLVSNIDERMALIVDPMLATGGSVIATIDLLKKAGCSSIKVLVLVAAPEGIAALEKAHPDVELYTASIDQGLNEHGYIIPGLGDAGDKIFGTK [P0A8F0]
total protein half-life in vivo [8]: 5.6625 ± 0.0038 h
total protein half-life in vivo [9]: 5.17 ± 0.33 h
total protein half-life in vivo [10]: 5.83 ± 0.94 h
total protein half-life in vivo [6]: 5.36 ± 0.61 h
total protein half-life in vivo [7]: 5.3 ± 0.15 h
total protein half-life in vivo [11]: 3.05 ± 0.29 h
total protein half-life in vivo [1]: 5.86 ± 0.36 h
total protein half-life in vivo [2]: 10.9 ± 1.4 h
total protein half-life in vivo [3]: 5.71 ± 0.23 h
total protein half-life in vivo [12]: 12.1 ± 2.8 h
total protein half-life in vivo [4]: 6.55 ± 0.34 h
total protein half-life in vivo [5]: 11.3 ± 0.98 h

MKIVIAPDSFKESLSAEKCCQAIKAGFSTLFPDANYICLPIADGGEGTVDAMVAATGGNIVTLEVCGPMGEKVNAFYGLTGDGKTAVIEMAAASGLMLVAPEKRNPLLASSFGTGELIRHALDNDIRHIILGIGGSATVDGGMGMAQALGVRFLDADGQALAANGGNLARVASIEMDECDPRLANCHIEVACDVDNPLVGARGAAAVFGPQKGATPEMVEELEQGLQNYARVLQQQTEINVCQMAGGGAAGGMGIAAAVFLNADIKPGIEIVLNAVNLAQAVQGAALVITGEGRIDSQTAGGKAPLGVASVAKQFNVPVIGIAGVLGDGVEVVHQYGIDAVFSILPRLAPLAEVLASGETNLFNSARNIACAIKIGQGIKN
total protein half-life in vivo [8]: 4.41 ± 0.66 h
total protein half-life in vivo [9]: 4.58 ± 0.6 h
total protein half-life in vivo [10]: 4.47 ± 0.077 h
total protein half-life in vivo [6]: 4.62 ± 0.21 h
total protein half-life in vivo [7]: 4.3 ± 0.45 h
total protein half-life in vivo [11]: 3.05 ± 0.13 h
total protein half-life in vivo [1]: 4.82 ± 0.53 h
total protein half-life in vivo [2]: 10.4 ± 1.2 h
total protein half-life in vivo [3]: 5.7 ± 1.2 h
total protein half-life in vivo [12]: 8.201 ± 0.034 h
total protein half-life in vivo [4]: 5.05 ± 0.15 h
total protein half-life in vivo [5]: 9.23 ± 0.27 h

MKKAIAYMRFSSPGQMSGDSLNRQRRLIAEWLKVNSDYYLDTITYEDLGLSAFKGKHAQSGAFSEFLDAIEHGYILPGTTLLVESLDRLSREKVGEAIERLKLILNHGIDVITLCDNTVYNIDSLNEPYSLIKAILIAQRANEESEIKSSRVKLSWKKKRQDALESGTIMTASCPRWLSLDDKRTAFVPDPDRVKTIELIFKLRMERRSLNAIAKYLNDHAVKNFSGKESAWGPSVIEKLLANKALIGICVPSYRARGKGISEIAGYYPRVISDDLFYAVQEIRLAPFGISNSSKNPMLINLLRTVMKCEACGNTMIVHAVSGSLHGYYVCPMRRLHRCDRPSIKRDLVDYNIINELLFNCSKIQPVENKKDANETLELKIIELQMKINNLIVALSVAPEVTAIAEKIRLLDKELRRASVSLKTLKSKGVNSFSDFYAIDLTSKNGRELCRTLAYKTFEKIIINTDNKTCDIYFMNGIVFKHYPLMKVISAQQAISALKYMVDGEIYF
total protein half-life in vivo [8]: > 8 h
total protein half-life in vivo [9]: 1.49 h
total protein half-life in vivo [11]: 1.41 h
total protein half-life in vivo [2]: 1.97 h
total protein half-life in vivo [12]: 14 h

MKKAKILSGVLLLCFSSPLISQAATLDVRGGYRSGSHAYETRLKVSEGWQNGWWASMESNTWNTIHDNKKENAALNDVQVEVNYAIKLDDQWTVRPGMLTHFSSNGTRYGPYVKLSWDATKDLNFGIRYRYDWKAYRQQDLSGDMSRDNVHRWDGYVTYHINSDFTFAWQTTLYSKQNDYRYANHKKWATENAFVLQYHMTPDITPYIEYDYLDRQGVYNGRDNLSENSYRIGVSFKL
total protein half-life in vivo [8]: 4.55 h
total protein half-life in vivo [11]: 3.093 ± 0.0091 h
total protein half-life in vivo [1]: 6.86 ± 1.1 h

MKKGFMLFTLLAAFSGFAQADDAAIQQTLAKMGIKSSDIQPAPVAGMKTVLTNSGVLYITDDGKHIIQGPMYDVSGTAPVNVTNKMLLKQLNALEKEMIVYKAPQEKHVITVFTDITCGYCHKLHEQMADYNALGITVRYLAFPRQGLDSDAEKEMKAIWCAKDKNKAFDDVMAGKSVAPASCDVDIADHYALGVQLGVSGTPAVVLSNGTLVPGYQPPKEMKEFLDEHQKMTSGK [P0AEG6]
total protein half-life in vivo [8]: 5.41 ± 0.26 h
total protein half-life in vivo [9]: 5.77 ± 0.5 h
total protein half-life in vivo [10]: 6.69 ± 0.64 h
total protein half-life in vivo [6]: 6.3 ± 0.28 h
total protein half-life in vivo [7]: 6.38 ± 0.49 h
total protein half-life in vivo [11]: 3.31 ± 0.52 h
total protein half-life in vivo [1]: 5.7 ± 0.21 h
total protein half-life in vivo [2]: 10.8 ± 1.6 h
total protein half-life in vivo [3]: 5.8 ± 0.27 h
total protein half-life in vivo [12]: 13.1 ± 2 h
total protein half-life in vivo [4]: 5.93 ± 1.2 h
total protein half-life in vivo [5]: 13.2 ± 0.74 h

MKKIACLSALAAVLAFTAGTSVAATSTVTGGYAQSDAQGQMNKMGGFNLKYRYEEDNSPLGVIGSFTYTEKSRTASSGDYNKNQYYGITAGPAYRINDWASIYGVVGVGYGKFQTTEYPTYKHDTSDYGFSYGAGLQFNPMENVALDFSYEQSRIRSVDVGTWIAGVGYRF [P0A917]
total protein half-life in vivo [8]: 7.26 ± 0.62 h
total protein half-life in vivo [9]: 6.37 ± 0.47 h
total protein half-life in vivo [10]: 6.51 ± 0.36 h
total protein half-life in vivo [6]: 6.76 ± 0.59 h
total protein half-life in vivo [7]: 5.81 ± 0.095 h
total protein half-life in vivo [11]: 3.09 ± 0.13 h
total protein half-life in vivo [1]: 6.04 ± 0.27 h
total protein half-life in vivo [2]: 14.4 ± 0.89 h
total protein half-life in vivo [3]: 6.09 ± 0.073 h
total protein half-life in vivo [12]: 12.9 ± 1.1 h
total protein half-life in vivo [4]: 6.15 ± 0.19 h
total protein half-life in vivo [5]: 12.9 ± 0.62 h

MKKIAIVGAGPTGIYTLFSLLQQQTPLSISIFEQADEAGVGMPYSDEENSKMMLANIASIEIPPIYCTYLEWLQKQEDSHLQRYGVKKETLHDRQFLPRILLGEYFRDQFLRLVDQARQQKFAVAVYESCQVTDLQITNAGVMLATNQDLPSETFDLAVIATGHVWPDEEEATRTYFPSPWSGLMEAKVDACNVGIMGTSLSGLDAAMAVAIQHGSFIEDDKQHVVFHRDNASEKLNITLLSRTGILPEADFYCPIPYEPLHIVTDQALNAEIQKGEEGLLDRVFRLIVEEIKFADPDWSQRIALESLNVDSFAQAWFAERKQRDPFDWAEKNLQEVERNKREKHTVPWRYVILRLHEAVQEIVPHLNEHDHKRFSKGLARVFIDNYAAIPSESIRRLLALREAGIIHILALGEDYKMEINESRTVLKTEDNSYSFDVFIDARGQRPLKVKDIPFPGLREQLQKTGDEIPDVGEDYTLQQPEDIRGRVAFGALPWLMHDQPFVQGLTACAEIGEAMARAVVKPASRARRRLSFD
total protein half-life in vivo [8]: 4.97 ± 0.15 h
total protein half-life in vivo [9]: 4.38 ± 0.22 h
total protein half-life in vivo [10]: 4.07 ± 0.29 h
total protein half-life in vivo [6]: 4.14 ± 0.29 h
total protein half-life in vivo [7]: 3.75 ± 0.084 h
total protein half-life in vivo [11]: 3.05 ± 0.16 h
total protein half-life in vivo [1]: 5.2 ± 0.33 h
total protein half-life in vivo [2]: 8.04 ± 1.7 h
total protein half-life in vivo [3]: 3.89 ± 0.12 h
total protein half-life in vivo [12]: 6.3 ± 0.43 h
total protein half-life in vivo [4]: 5.59 ± 0.087 h
total protein half-life in vivo [5]: 9.95 ± 0.48 h

MKKIALAGLAGMLLVSASVNAMSISGQAGKEYTNIGVGFGTETTGLALSGNWTHNDDDGDVAGVGLGLNLPLGPLMATVGGKGVYTNPNYGDEGYAAAVGGGLQWKIGNSFRLFGEYYYSPDSLSSGIQSYEEANAGARYTIMRPVSIEAGYRYLNLSGKDGNRDNAVADGPYVGVNASF
total protein half-life in vivo [9]: > 8 h
total protein half-life in vivo [10]: > 8 h
total protein half-life in vivo [6]: 6.46 ± 1.8 h
total protein half-life in vivo [7]: 5.13 h
total protein half-life in vivo [11]: 2.53 ± 0.17 h
total protein half-life in vivo [3]: 4.53 ± 0.26 h
total protein half-life in vivo [4]: 4.72 h
total protein half-life in vivo [5]: 13 h
